B1: chymase C22S/D175N/A226R (enzyme)
chain: IIGGTESKPHSRPYMAYLEIVTSNGPSKFCGGFLIRRNFVLTAAHCAGRSITVTLGAHNITEEEDTWQKLEVIKQFRHPKYNTSTLHHDIMLLKLKEKASLTLAVGTLPFPSQFNFVPPGRMCRVAGWGRTGVLKPGSDTLQEVKLRLMDPQACSHFRNFDHNLQLCVGNPRKTKSAFKGDSGGPLLCAGVAQGIVSYGRSDAKPPRVFTRISHYRPWINQILQAN
B2: chymase C22S/V138A/G145D/S189T/A190S/A226R (enzyme)
chain: IIGGTESKPHSRPYMAYLEIVTSNGPSKFCGGFLIRRNFVLTAAHCAGRSITVTLGAHNITEEEDTWQKLEVIKQFRHPKYNTSTLHHDIMLLKLKEKASLTLAVGTLPFPSQFNFVPPGRMCRAAGWGRTDVLKPGSDTLQEVKLRLMDPQACSHFRDFDHNLQLCVGNPRKTKTSFKGDSGGPLLCAGVAQGIVSYGRSDAKPPRVFTRISHYRPWINQILQAN
B3: chymase C22S/K40M/F41R/L99N/F173Y/D175S/S218L/A226R (enzyme)
chain: IIGGTESKPHSRPYMAYLEIVTSNGPSMRCGGFLIRRNFVLTAAHCAGRSITVTLGAHNITEEEDTWQKLEVIKQFRHPKYNTSTNHHDIMLLKLKEKASLTLAVGTLPFPSQFNFVPPGRMCRVAGWGRTGVLKPGSDTLQEVKLRLMDPQACSHYRSFDHNLQLCVGNPRKTKSAFKGDSGGPLLCAGVAQGIVSYGRLDAKPPRVFTRISHYRPWINQILQAN
B4: chymase C22S/K40L/F41K/L99N/D175N/S218L/A226R (enzyme)
chain: IIGGTESKPHSRPYMAYLEIVTSNGPSLKCGGFLIRRNFVLTAAHCAGRSITVTLGAHNITEEEDTWQKLEVIKQFRHPKYNTSTNHHDIMLLKLKEKASLTLAVGTLPFPSQFNFVPPGRMCRVAGWGRTGVLKPGSDTLQEVKLRLMDPQACSHFRNFDHNLQLCVGNPRKTKSAFKGDSGGPLLCAGVAQGIVSYGRLDAKPPRVFTRISHYRPWINQILQAN
B5: chymase C22S/V138A/A226R (enzyme)
chain: IIGGTESKPHSRPYMAYLEIVTSNGPSKFCGGFLIRRNFVLTAAHCAGRSITVTLGAHNITEEEDTWQKLEVIKQFRHPKYNTSTLHHDIMLLKLKEKASLTLAVGTLPFPSQFNFVPPGRMCRAAGWGRTGVLKPGSDTLQEVKLRLMDPQACSHFRDFDHNLQLCVGNPRKTKSAFKGDSGGPLLCAGVAQGIVSYGRSDAKPPRVFTRISHYRPWINQILQAN
B6: chymase C22S/V138T/A190S/V213A/A226R (enzyme)
chain: IIGGTESKPHSRPYMAYLEIVTSNGPSKFCGGFLIRRNFVLTAAHCAGRSITVTLGAHNITEEEDTWQKLEVIKQFRHPKYNTSTLHHDIMLLKLKEKASLTLAVGTLPFPSQFNFVPPGRMCRTAGWGRTGVLKPGSDTLQEVKLRLMDPQACSHFRDFDHNLQLCVGNPRKTKSSFKGDSGGPLLCAGVAQGIASYGRSDAKPPRVFTRISHYRPWINQILQAN
B7: chymase C22S/V138S/S189T/A226R/F228M (enzyme)
chain: IIGGTESKPHSRPYMAYLEIVTSNGPSKFCGGFLIRRNFVLTAAHCAGRSITVTLGAHNITEEEDTWQKLEVIKQFRHPKYNTSTLHHDIMLLKLKEKASLTLAVGTLPFPSQFNFVPPGRMCRSAGWGRTGVLKPGSDTLQEVKLRLMDPQACSHFRDFDHNLQLCVGNPRKTKTAFKGDSGGPLLCAGVAQGIVSYGRSDAKPPRVMTRISHYRPWINQILQAN
B8: chymase C22S/V138A/S189T/A226R/F228M (enzyme)
chain: IIGGTESKPHSRPYMAYLEIVTSNGPSKFCGGFLIRRNFVLTAAHCAGRSITVTLGAHNITEEEDTWQKLEVIKQFRHPKYNTSTLHHDIMLLKLKEKASLTLAVGTLPFPSQFNFVPPGRMCRAAGWGRTGVLKPGSDTLQEVKLRLMDPQACSHFRDFDHNLQLCVGNPRKTKTAFKGDSGGPLLCAGVAQGIVSYGRSDAKPPRVMTRISHYRPWINQILQAN
B9: chymase C22S/K40L/F41K/F173Y/D175N/S218L/A226R (enzyme)
chain: IIGGTESKPHSRPYMAYLEIVTSNGPSLKCGGFLIRRNFVLTAAHCAGRSITVTLGAHNITEEEDTWQKLEVIKQFRHPKYNTSTLHHDIMLLKLKEKASLTLAVGTLPFPSQFNFVPPGRMCRVAGWGRTGVLKPGSDTLQEVKLRLMDPQACSHYRNFDHNLQLCVGNPRKTKSAFKGDSGGPLLCAGVAQGIVSYGRLDAKPPRVFTRISHYRPWINQILQAN
B10: chymase C22S/K40L/F41K/L99N/F173Y/D175N/A226R (enzyme)
chain: IIGGTESKPHSRPYMAYLEIVTSNGPSLKCGGFLIRRNFVLTAAHCAGRSITVTLGAHNITEEEDTWQKLEVIKQFRHPKYNTSTNHHDIMLLKLKEKASLTLAVGTLPFPSQFNFVPPGRMCRVAGWGRTGVLKPGSDTLQEVKLRLMDPQACSHYRNFDHNLQLCVGNPRKTKSAFKGDSGGPLLCAGVAQGIVSYGRSDAKPPRVFTRISHYRPWINQILQAN
B11: chymase C22S/F41K/L99N/F173Y/D175N/S218L/A226R (enzyme)
chain: IIGGTESKPHSRPYMAYLEIVTSNGPSKKCGGFLIRRNFVLTAAHCAGRSITVTLGAHNITEEEDTWQKLEVIKQFRHPKYNTSTNHHDIMLLKLKEKASLTLAVGTLPFPSQFNFVPPGRMCRVAGWGRTGVLKPGSDTLQEVKLRLMDPQACSHYRNFDHNLQLCVGNPRKTKSAFKGDSGGPLLCAGVAQGIVSYGRLDAKPPRVFTRISHYRPWINQILQAN
B12: chymase C22S/S189T/A190S/F191S/A220L/A226R (enzyme)
chain: IIGGTESKPHSRPYMAYLEIVTSNGPSKFCGGFLIRRNFVLTAAHCAGRSITVTLGAHNITEEEDTWQKLEVIKQFRHPKYNTSTLHHDIMLLKLKEKASLTLAVGTLPFPSQFNFVPPGRMCRVAGWGRTGVLKPGSDTLQEVKLRLMDPQACSHFRDFDHNLQLCVGNPRKTKTSSKGDSGGPLLCAGVAQGIVSYGRSDLKPPRVFTRISHYRPWINQILQAN
B13: chymase C22S/K40L/L99N/F173Y/D175N/S218L/A226R (enzyme)
chain: IIGGTESKPHSRPYMAYLEIVTSNGPSLFCGGFLIRRNFVLTAAHCAGRSITVTLGAHNITEEEDTWQKLEVIKQFRHPKYNTSTNHHDIMLLKLKEKASLTLAVGTLPFPSQFNFVPPGRMCRVAGWGRTGVLKPGSDTLQEVKLRLMDPQACSHYRNFDHNLQLCVGNPRKTKSAFKGDSGGPLLCAGVAQGIVSYGRLDAKPPRVFTRISHYRPWINQILQAN
B14: chymase C22S/A226R/F228A (enzyme)
chain: IIGGTESKPHSRPYMAYLEIVTSNGPSKFCGGFLIRRNFVLTAAHCAGRSITVTLGAHNITEEEDTWQKLEVIKQFRHPKYNTSTLHHDIMLLKLKEKASLTLAVGTLPFPSQFNFVPPGRMCRVAGWGRTGVLKPGSDTLQEVKLRLMDPQACSHFRDFDHNLQLCVGNPRKTKSAFKGDSGGPLLCAGVAQGIVSYGRSDAKPPRVATRISHYRPWINQILQAN
B15: chymase C22S/K40M/F41V/L99N/G151R/F173S/S218E/A226R (enzyme)
chain: IIGGTESKPHSRPYMAYLEIVTSNGPSMVCGGFLIRRNFVLTAAHCAGRSITVTLGAHNITEEEDTWQKLEVIKQFRHPKYNTSTNHHDIMLLKLKEKASLTLAVGTLPFPSQFNFVPPGRMCRVAGWGRTGVLKPRSDTLQEVKLRLMDPQACSHSRDFDHNLQLCVGNPRKTKSAFKGDSGGPLLCAGVAQGIVSYGREDAKPPRVFTRISHYRPWINQILQAN
B16: chymase C22S/V138A/S189T/A226R (enzyme)
chain: IIGGTESKPHSRPYMAYLEIVTSNGPSKFCGGFLIRRNFVLTAAHCAGRSITVTLGAHNITEEEDTWQKLEVIKQFRHPKYNTSTLHHDIMLLKLKEKASLTLAVGTLPFPSQFNFVPPGRMCRAAGWGRTGVLKPGSDTLQEVKLRLMDPQACSHFRDFDHNLQLCVGNPRKTKTAFKGDSGGPLLCAGVAQGIVSYGRSDAKPPRVFTRISHYRPWINQILQAN
B17: chymase C22S/A220S/A226R (enzyme)
chain: IIGGTESKPHSRPYMAYLEIVTSNGPSKFCGGFLIRRNFVLTAAHCAGRSITVTLGAHNITEEEDTWQKLEVIKQFRHPKYNTSTLHHDIMLLKLKEKASLTLAVGTLPFPSQFNFVPPGRMCRVAGWGRTGVLKPGSDTLQEVKLRLMDPQACSHFRDFDHNLQLCVGNPRKTKSAFKGDSGGPLLCAGVAQGIVSYGRSDSKPPRVFTRISHYRPWINQILQAN
B18: chymase C22S/V138L/S189T/A190G/A226R (enzyme)
chain: IIGGTESKPHSRPYMAYLEIVTSNGPSKFCGGFLIRRNFVLTAAHCAGRSITVTLGAHNITEEEDTWQKLEVIKQFRHPKYNTSTLHHDIMLLKLKEKASLTLAVGTLPFPSQFNFVPPGRMCRLAGWGRTGVLKPGSDTLQEVKLRLMDPQACSHFRDFDHNLQLCVGNPRKTKTGFKGDSGGPLLCAGVAQGIVSYGRSDAKPPRVFTRISHYRPWINQILQAN
B19: chymase C22S/K40M/F41I/L99H/G151R/F173S/S218L/A226R (enzyme)
chain: IIGGTESKPHSRPYMAYLEIVTSNGPSMICGGFLIRRNFVLTAAHCAGRSITVTLGAHNITEEEDTWQKLEVIKQFRHPKYNTSTHHHDIMLLKLKEKASLTLAVGTLPFPSQFNFVPPGRMCRVAGWGRTGVLKPRSDTLQEVKLRLMDPQACSHSRDFDHNLQLCVGNPRKTKSAFKGDSGGPLLCAGVAQGIVSYGRLDAKPPRVFTRISHYRPWINQILQAN
B20: chymase C22S/S189T/A226R/F228M (enzyme)
chain: IIGGTESKPHSRPYMAYLEIVTSNGPSKFCGGFLIRRNFVLTAAHCAGRSITVTLGAHNITEEEDTWQKLEVIKQFRHPKYNTSTLHHDIMLLKLKEKASLTLAVGTLPFPSQFNFVPPGRMCRVAGWGRTGVLKPGSDTLQEVKLRLMDPQACSHFRDFDHNLQLCVGNPRKTKTAFKGDSGGPLLCAGVAQGIVSYGRSDAKPPRVMTRISHYRPWINQILQAN
B21: chymase C22S/P38Q/V138I/A226R/F228A (enzyme)
chain: IIGGTESKPHSRPYMAYLEIVTSNGQSKFCGGFLIRRNFVLTAAHCAGRSITVTLGAHNITEEEDTWQKLEVIKQFRHPKYNTSTLHHDIMLLKLKEKASLTLAVGTLPFPSQFNFVPPGRMCRIAGWGRTGVLKPGSDTLQEVKLRLMDPQACSHFRDFDHNLQLCVGNPRKTKSAFKGDSGGPLLCAGVAQGIVSYGRSDAKPPRVATRISHYRPWINQILQAN

This test deals with Human Factor B (human) (UniProt P00751). Put plainly: cell-based or functional assay.
Human Factor B (human), sequence (P00751 26-764 limits assumed): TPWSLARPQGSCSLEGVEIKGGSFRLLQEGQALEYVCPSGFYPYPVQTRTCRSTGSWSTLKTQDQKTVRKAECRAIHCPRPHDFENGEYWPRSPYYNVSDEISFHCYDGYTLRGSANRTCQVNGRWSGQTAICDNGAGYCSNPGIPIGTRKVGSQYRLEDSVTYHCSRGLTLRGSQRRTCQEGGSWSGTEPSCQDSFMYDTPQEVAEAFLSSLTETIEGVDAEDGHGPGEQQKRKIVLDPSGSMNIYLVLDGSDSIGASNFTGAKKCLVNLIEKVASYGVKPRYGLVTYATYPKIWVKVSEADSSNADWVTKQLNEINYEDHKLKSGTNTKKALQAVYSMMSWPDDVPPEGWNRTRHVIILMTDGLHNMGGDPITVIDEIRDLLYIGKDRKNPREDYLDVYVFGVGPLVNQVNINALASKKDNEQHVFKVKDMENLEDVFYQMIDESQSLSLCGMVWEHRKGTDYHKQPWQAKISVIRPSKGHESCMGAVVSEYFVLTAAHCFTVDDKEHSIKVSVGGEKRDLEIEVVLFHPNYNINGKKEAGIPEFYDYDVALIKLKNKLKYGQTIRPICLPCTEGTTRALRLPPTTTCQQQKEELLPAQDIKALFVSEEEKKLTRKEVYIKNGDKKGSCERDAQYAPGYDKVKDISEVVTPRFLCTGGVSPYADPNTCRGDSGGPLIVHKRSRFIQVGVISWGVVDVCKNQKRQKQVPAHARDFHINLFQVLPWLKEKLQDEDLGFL
B1 came in with a fB Cleavage EC50 of 0.564 µM and a fB Cleavage, 80% plasma EC50 of 7.77 µM.
As to B2, the fB Cleavage EC50 came to 3.81 µM.
Take B3: the fB Cleavage EC50 was 0.23 µM and the fB Cleavage, 80% plasma EC50 came out at 5.14 µM.
In turn, B4 came in with a fB Cleavage EC50 of 0.295 µM.
Same read-out and setting: the figure for B5 is 2.94 µM; for B6 it is 6.71 µM.
Still for that read-out and setting: next, B7: 2.98 µM; B8: 1.77 µM; B9: 0.077 µM.
Molecule B10 came in with a fB Cleavage EC50 of 0.151 µM.
Molecule B11 came in with a fB Cleavage EC50 of 0.077 µM.
Molecule B12 showed a fB Cleavage EC50 of 8.14 µM.
The molecule B13 displayed a fB Cleavage EC50 of 0.113 µM.
Regarding B14, the fB Cleavage EC50 came to 5.07 µM.
On to B15, for which the fB Cleavage EC50 is 11.8 µM.
On the same count and under the same terms, the figure for B16 is 4.42 µM; for B17 it is 5.56 µM; for B18 it is 4.16 µM.
Take B19: the fB Cleavage EC50 was 8.2 µM.
For B20, the fB Cleavage EC50 is 1.55 µM.
On the same count and under the same terms, the figure for B21 is 12.4 µM.

For the origin of these results see patent US20240117334A1, “FACTOR B PROTEASES” (Vertex Pharmaceuticals Incorporated, priority 2021, published 2024).
